The target of experiment [1] is T1, CPXV14-His (His-tagged recombinant cowpox virus Brighton Red CPXV14) (cowpox virus (Brighton Red strain)). Kind of experiment: BLI. A general note: BLI is a label-free optical method that tracks binding on a fibre tip over time.
Experiment [2] concerns the target T1, CPXV14-His (His-tagged recombinant …). Kind of experiment: BLI. The source holds these as a separate data set.

B1: soluble recombinant murine FcγRIIB (mCD32B) ectodomain (receptor)
chain: THDLPKAVVKLEPPWIQVLKEDTVTLTCEGTHNPGNSSTQWFHNGRSIRSQVQASYTFKATVNDSGEYRCQMEQTRLSDPVDLGVISDWLLLQTPQLVFLEGETITLRCHSWRNKLLNRISFFHNEKSVRYHHYSSNFSIPKANHSHSGDYYCKGSLGRTLHQSKPVTITVQGPKSSRSLP
One may read the koff as the rate constant with which the complex falls apart. The term Kd denotes the constant that tells how readily two partners part at equilibrium. Consider B1, for which the koff in experiment [1] was determined as 0.00198 s⁻¹. In addition, the Kd in experiment [2] was 2.94 nM.

For the origin of these results see article PMC9521928 (2022).
